Assay results from patent US20160009789A1 (published 2016).

B1: 2F5 wild-type IgG (antibody, V domains shown)
VH: RITLKESGPPLVKPTQTLTLTCSFSGFSLSDFGVGVGWIRQPPGKALEWLAIIYSDDDKRYSPSLNTRLTITKDTSKNQVVLVMTRVSPVDTATYFCAHRRGPTTLFGVPIARGPVNAMDVWGQGITVTISS
VL: ALQLTQSPSSLSASVGDRITITCRASQGVTSALAWYRQKPGSPPQLLIYDASSLESGVPSRFSGSGSGTEFTLTISTLRPEDFATYYCQQLHFYPHTFGGGTRVDVRR
B2: gHC+LC (antibody, V domains shown)
VH: not shown
VL: EIVLTQSPGTLSLSPGETAIISCRTSQYGSLAWYQQRPGQAPRLVIYSGSTRAAGIPDRFSGSRWGPDYNLTISNLESGDFGVYYCQQYEFFGQGTKVQVDI
B3: HC+gLC (antibody, V domains shown)
VH: QVQLVQSGGQMKKPGESMRISCRASGYEFIDCTLNWIRLAPGKRPEWMGWLKPRGGAVNYARPLQGRVTMTRDVYSDTAFLELRSLTVDDTAVYFCTRGKNCDYNWDFEHWGRGTPVIVSS
VL: EIVLTQSPATLSLSPGERATLSCRASQYSVSSYLAWYQQKPGQAPRLLIYDASNRATGIPARFSGSGSGRDFTLTISSLEPEDFAVYYCQQFGQGTKLEIK
B4: gHC+gLC (antibody, V domains shown)
VH: not shown
VL: B3 VL

Experiments:
[1] = biological target: gp41 MPER peptide (residues 657 to 669 of gp41) linked to a C-terminal C9 tag; experiment: SPR
HXBc2 = experiment: ELISA

| Binder | Kd [1] | EC50 (HXBc2) |
| --- | --- | --- |
| B1 | 9.5 nM |  |
| B2 |  | 21.4 µg/mL |
| B3 |  | 2.14 µg/mL |
| B4 |  | > 50 µg/mL |
